Assay results from US8021833.

Target: TSG101 (UniProt Q99816)
Assay: cell-based or functional assay

Chain of UniProt Q99816 (Q99816 2-390 limits assumed): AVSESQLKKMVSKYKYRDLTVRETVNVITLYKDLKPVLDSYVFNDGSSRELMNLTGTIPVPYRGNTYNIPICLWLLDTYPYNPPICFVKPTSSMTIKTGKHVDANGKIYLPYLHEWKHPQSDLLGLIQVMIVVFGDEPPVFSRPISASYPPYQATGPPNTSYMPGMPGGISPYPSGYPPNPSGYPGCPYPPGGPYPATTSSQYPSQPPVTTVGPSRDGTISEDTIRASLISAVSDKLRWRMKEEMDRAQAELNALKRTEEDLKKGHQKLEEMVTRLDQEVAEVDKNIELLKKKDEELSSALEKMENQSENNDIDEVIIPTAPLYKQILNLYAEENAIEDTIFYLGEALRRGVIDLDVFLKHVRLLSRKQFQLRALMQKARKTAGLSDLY

Substance	release of HIV-1 from transfected 293T cells	release of HIV-1 from transfected 293T cells, repeated experiments [% inhibition]
Vps28 mutant with deletion of amino acids 126 to 167, C-terminal Flag tag (from UniProt Q9UK41 1-125; Q9UK41 168-221)	63 % inhibition	–
Vps28 mutant with deletion of the N-terminal 27 amino acids, C-terminal Flag tag (from UniProt Q9UK41 28-221)	72 % reduction	–
Vps28ΔC, C-terminal 43-amino acid deletion mutant of Vps28, C-terminal Flag tag (from UniProt Q9UK41 1-178)	67 % reduction	53 to 75
